Experimental findings from the DeepSol protein solubility set are described below.

This data set is described as follows: soluble on expression in E. coli; label from the status in PepcDB or PDB records.
Take “MLIHYIDIAKRNFVIAVSSLSKTKTETNNPKGIAHTIEYLKKHKVALVVTESTGGLEIPAAKAIHRAGIAVIIANPRQTHQFAQSQSLTKTDAKDAKMPAFFAQMKAQKEDWQTMPYHPPTEAEEVLEALVNRRNQSADMRTAEKNRLHQVHETQVGSVKQLIAHFDRLIDESDKQIDDHTHTHFDGKAQVAEQIKGIGSITTATLMAMLPELGRLSHKRIASLVGIAPHPRKSGEAKFKSRCFGGRSAVLKALYMATVAATRFEPLIRDFHQRPLSEGKPYKVAVTACMRKLLETFAKFLSLTTTEIPTQVFGCFRPKYRLILPKHPLNPPRTPDNQASGLPFRRQRAHLACWRLSTGSNTSPSDGFAHSL”: the “soluble on expression in E. coli” value is “not soluble”.

Take “MNQPSYTSGRQDVALLATTVGDAFDATVARHAEREALVVRHQRLRYSWRQLAERVDAYARAFIALGLRPGERLGIWAPNCAEWCITQFASAKVGAVLVNINPAYRSSELEYALKQSGCSWLICADAFKTSDYHAMLGDLLPELARARPGELASERLPELRGVISLAERAPAGFLHWQGLPGLAAAVGAEELRQRQASLQFDEPINIQYTSGTTGFPKGATLSHYNILNNGYMVGESLGLGAEDRLVIPVPLYHCFGMVMGNLGCVTHGSTMIYPAPSFDAEATLLAVAEERATALYGVPTMFIAELDHPRRREFDLSSLRTGIMAGATCPIEVMRRVIGDMHMAEVQIAYGMTETSPVSLQTGPDDGLELRVTTVGRTQPRLESKIVDQTGRVVPRGEIGELCTRGYSVMLGYWNDPQATAEAIDPARWMHTGDLAVMDDDGYVRIVGRSKDMIIRGGENIYPRELEEFFFTHPAVADVQVIGIPDERYGEEIVAWIKLHPGHHADDEQLRAFCKARIAHFKIPRHFKFVDEFPMTVTGKIQKFRMREISIEEIRLLALRQGR”: the “soluble on expression in E. coli” value is on record as “not soluble”.

Regarding “MSLTEDVTSQTSESLARHSVLAEDLSQDGLTSLGAPGARVLLVWDAPNLDMGLGSILGRRPTALERPRFDALGRWLLARTAEIVAGRPGISTEPEATVFTNIAPGSAEVVRPWVDALRNVGFAVFAKPKVDEDSDVDRDMLAHIDERYREGLAALVVASADGQAFRQPLEAVARSGTPVQVLGFREHASWALASDTLEFVDLEDIAGVFREPLPRIGLDSLPEQGAWLQPFRPLSSLLTSRV”, the “soluble on expression in E. coli” value is listed as “soluble”.

As for “MGSDKIHHHHHHMIFSCPIDRSDVNEKLECEKGHKFGIIGGQIYDFLLKDVEVDKLLSRVIPIYESIWAPLGLLITSGKTYTSFLREIGEFIDGDLIIDVGTGTGKIFDFLNCKTCIGIDVSLRFLMYMKRKRTRVIAVRADANNLPLKSGIADGISSTLVLHMLSNPSFAIREMSRVLKSNGKCSIAVLANVNSIIGKTLSRWWKVNLRHYDYYINLLQENSLKVVERKELGPWEVINCIKIS”, the “soluble on expression in E. coli” value is “not soluble”.

Regarding “RGEPYAGQVAVGATVINRTKNPKFPSTIAGVIYQPGAFTAIVDGQIHATMEPNSIRAARDALNGWDPSGGAIYYFNPATATSGWIWSRPLIIIIGKHRFCR”, the “soluble on expression in E. coli” value was “not soluble”.

Consider “MEYSDIRDRILLATLPNVPFDGWSGKALRLGAESAGFDREAADRAFPGGPAEAVGHFIDLANRMMEADLGARDLSGLKLPEKIHLAIKLRLERWAGDREAVRRGLALLSLPGHARLSLKSTYATVDGIWHAVGDRSVDFSFYTKRAELAAIYGATLLVWLEDTSEESAETWAFLDRRLEGVIRLRKARAKLRERMTHLPTLPRLLNPLDLVRKPFGLMRSMRMRLEHHHHHH”, for which the “soluble on expression in E. coli” value was “soluble”.

On to “MKQEFTRIAVKVGSNVLARRDGTLDVTRMSALVDQIAELNKSGVEIILISSGAVASGRSEIHPQKKLDSVDQRQLFSAVGQAKLINRYYELFREHGIAVGQVLTTKENFSTRRHYLNQKNCMTVMLENGVIPIVNENDTISVSELMFTDNDELSGLIASMMDAQALIILSNIDGIYNGSPSDPASAVIREIEHGKDLSNYIQATKSSFGRGGMLTKTNIARKVADEGITVIIANGKRDNILVDLLQQPDDTVCTRFIPSTEAVSSVKKWIAHSEGFAKGEIHINECATDILSSEKAASILPVGITHIEGEFEKDDIVRIMDFLGNQVGVGKANCDSAQAREAMGKHGKKPVVHYDYLYIE”, for which the “soluble on expression in E. coli” value was “not soluble”.

As for “SSSNSEKEWHIVPVSKDYFSIPNDLLWSFNTTNKSINVYSKCISGKAVYSFNAGKFMGNFNVKEVDGCFMDAQKIAIDKLFSMLKDGVVLKGNKINDTILIEKDGEVKLKLIRGI”, the “soluble on expression in E. coli” value is reported as “soluble”.

On to “MTWQVQRRKWKLNLIAELESRVLAEPVPLPADPMELKNLEYRPVKVRGCFDHSKELYMMPRTMVDPVREAREGGLISSSTQSGAYVVTPFHCTDLGVTILVNRGFVPRKKVNPETRQKGQIEGEVDLIGMVRLTETRQPFVPENNPERNHWHYRDLEAMARITGAEPIFIDANFQSTVPGGPIGGQTRVTLRNEHLQYIVTWYGLSAATSYLWFKKFLRGTPGV”, for which the “soluble on expression in E. coli” value is recorded as “not soluble”.

As to “MAHHHHHHMCFVARHKPALISGEAVVWLMERITGEELDVRSLENLCSAVVHLPVAVRTALRQELMEFVAFLSLQARELLQQVPAAQGGLSGCSDADAIQYFVSHVLELTVMLRTYPDLQWPPEFLAAVDACAASVEPLQEALLSAESSPVGLMVRLLEAPTGECKRVGLAMLREAANQCQSFATLQTFRFLLLMGDHGLQDVGTSRYLRDQFAKTAADVPPVQLSVALRCLGVATAGAATQGASGAGELRATVEGTAGNADLDDELERERLDAFLQFCVEVSRKHLSQGAPLRCVLATTESLHRLGCRDTAFFADVAAYIAAKHAAAPAERESADTATAVCAALGEDLLGEYPAVREFLLDVAQRGVRGESAMSPTQWMNLHDPSNALTPLTEQQQESWDIVEEMVRTRSDDVDALVRLAEKYMELLPFARPDDHKYFFGVCEEKVLKQDKLLKKCLDTIVDCGAVSRLSAQTIASILHSLAAIRFEYFASVKRFTSSISDEQWLLMEAAPLVQILTGMDKLSLRTPAVLRRIGGRLTEICRFLTPLDTAQAIHALQALGHNDAKLLGKLAAHAAALARRFDEASMAVLFSTPSIHRLMSTPEVARPLLLQASAKIQSQHRREKISAWVRRSGLPRELIDESTRRLQVTSGDARSSEVHLRLT”, the “soluble on expression in E. coli” value is “not soluble”.

In the case of “MNVMTEKKKLVVWVPLPPNSSWRGEGIAQTIENIVRNISPERKIEIVVSSKHAEMLVGLEKSNPNISVLTLGFRGKSTKKTIGYVSLNEVEKDSLWDLVIAKLPIIPAIFRKVGMYVSQLEYLLSLYIYSHLQRRGRFSSNNCRVWLPTPIIPYTHLLGGEKFVSFWDPFVFEYNKEFPLTAEYFVKKLSKHFSNASAIITQSRANKDYLETVMGIESSKINVIYNGSPDYSEFKKQQSNLSFSEVWSKSEFSGASKKAAFEALVNHQLNFSVLWRLLTKNKVSNRKIVLISTQNRPYKGFDQLFVLINELCLRRDNYDFIFTCNVPTKLKERYPSLYERIHEVTRVDNYLHASLYLMSDIVLHPSNVEGGLGAYPQYEASSVGKPSLINTGRHVNEMAEEGFDVDLLSSNFVNTKETVDKIEKLINSEEYMRQNIDAINRLKISWKESASNYENVFFGNENA”, the “soluble on expression in E. coli” value was “not soluble”.

With “MPVKCPGEYQVDGKKVILDEDCFMQNPEDWDEKVAEWLARELEGIQKMTEEHWKLVKYLREYWETFGSCPPIKMVTKETGFSLEKIYQLFPSGPAHGACKVAGAPKPTGCV”, the “soluble on expression in E. coli” value is recorded as “soluble”.

For the sequence “MGSDKIHHHHHHMEDLYLECPGCDEVTLHTVLKEKESKKHLKITVKCQECGTVHDIEKNFKLKDIKIVISRYDESEQSVLQIATDEILKVEDVILAFDESVEITALETEDSRRVSSSAAQDLKMIWARSIDVPKKVGISINSRESTYSFNILVPQDYVFEEKKIYRAGRDFFRIKQIKTEKGNFSRELARKIKRIYGEPVKPLRDYTDLTDYML”, the “soluble on expression in E. coli” value is “not soluble”.

Consider “MGSDKIHHHHHHSESIIEEAVRKGEVLKGEIVPIDTALFRYAYRMRVQGDKAVILDLHNADYYYHVFTYPDFQYQSSFGKRGEGPGESIYAANIRFAGQDTVWVLDDGKGRMYQYSGIAGGKTPKQEKDILLDKRLFRSLDFDLKDASTVVIPDYSGENRFSWASLSSGELLRKSEQIPVSDPELLRESAPAVAQGWNSFVSFSPDKKILVSVTQFGDRLDIYSMASQKHIGELGGDGEPQFKVSPEGYGLPAGRICYYDVQVTDQYIYTIYDGRKFKDIMKLADAYQQGGKILRISTHEGDVVKTYVLDRPIAGIYVDEAAGMLFGLDVNADEQIVKFPLELE”, for which the “soluble on expression in E. coli” value was “not soluble”.

On to “MSLLFASLLKNRLRLGQLTMIDAKGQTHVLGGDGPGPRVTIRLTDPSLHRRLFLRPHLAIGEAYMEGTLIIERGGLRDFLELIGANLAAIEGSPWVALGQRLSGLMRRLQQRNPVWRSRRNVAHHYDLSGAFYDLFLDSDRQYSCAYFARDGDSLEQAQDNKKRLIAAKLMLRPGQHVLDIGCGWGGLALHLARHHDVRVTGITLSQEQAALARERVRAAGLQDRVTILLKDYRDLDGRFDRVVSVGMLEHVGAPQLADYFRHVGGLLSDDGVALIHSIGRMEPPGSTNVWIRKYIFPGGYSPALSETLAAVEGSGLYLTDAEILRLHYARTLAEWTRRFQANREAARALYDERFCRMWEFYLLGCEMAFRHGNQMVFQLQLARREGHHHHHH”, for which the “soluble on expression in E. coli” value is reported as “soluble”.

As to “MSLVEAISLWNEGVLAADKKDWKGALDAFSAVQDPHSRICFNIGCMYTILKNMTEAEKAFTRSINRDKHLAVAYFQRGMLYYQTEKYDLAIKDLKEALIQLRGNQLIDYKILGLQFKLFACEVLYNIAFMYAKKEEWKKAEEQLALATSMKSEPRHSKIDKAMECVWKQKLYEPVVIPVGKLFRPNERQVAQLAKKDYLGKATVVASVVDQDSFSGFAPLQPQAAEPPPRPKTPEIFRALEGEAHRVLFGFVPETKEELQVMPGNIVFVLKKGNDNWATVMFNGQKGLVPCNYLEPVELRIHPQQQPQEESSPQSDIPAPPSSKAPGRPQLSPGQKQKEEPKEVKLSVPMPYTLKVHYKYTVVMKTQPGLPYSQVRDMVSKKLELRLEHTKLSYRPRDSNELVPLSEDSMKDAWGQVKNYCLTLWCENTVGDQGFPDEPKESEKADANNQTTEPQLKKGSQVEALFSYEATQPEDLEFQEGDIILVLSKVNEEWLEGECKGKVGIFPKVFVEDCATTDLESTRREV”, the “soluble on expression in E. coli” value is reported as “soluble”.

Turning to “MIGILIPVHNEEQLLDLCLETIKQAAAHPALKGEQVEVLVVLDSCTDRSAEIARAHGVMILEVTARNVGQARAEGAAFLLDRGARWLACTDGDSSVASDWLAEQLALDADAVCGTVTLGDWNNDISAPARAAYLKHYQQRDGHRHIHGANLGVSSIAYISAGGFPSLTCHEDVHLVRQLELIGARIAWSCRPRVTTSTRLNSKARGGFGDYLSSLNALEHHHHHH”, the “soluble on expression in E. coli” value was “not soluble”.
